Measurements taken from patent US20050142137A1 (CURAGEN, published 2005).

Legend:
[1] = target: T1, recombinant human SLPI (Secretory leukocyte protease inhibitor), R&D Systems Cat#260-PI (human, UniProt P03973 25-131, biotinylated in the streptavidin-plate ELISAs and on SRBCs); experiment: ELISA, B cell supernatant on biotinylated SLPI, rescreen
T1 construct: Bought protein; also called biotinylated SLPI; B-Cur12

[2] = target: T1, recombinant human SLPI (Secretory …); experiment: limiting antigen ELISA, biotinylated SLPI coated at 100 ng/ml
Method: (§1) The limiting antigen analysis is a method that affinity ranks the antigen-specific antibodies in B cell culture supernatants. […] Each plate was washed 5 times with dH₂O, before 46 μl/well of 1% milk in PBS with 0.05% sodium azide was added, followed by 4 μl/well of B cell supernatant. After 22 hours at RT on a shaker, the plates were again washed 5 times with dH₂O. Goat anti-Human (Fc)-HRP at 1 μg/ml, 50 μl/well was added. After 1 hour at RT, the plates were again washed 5 times with dH₂O and 50 μl/well of TMB substrate was added. The reaction was stopped by the addition of 50 μl of 1M phosphoric acid to each well and the plates were read at wavelength 450 nm. 42C1, 43H7, 35F1 and 9G12 were chosen for further evaluation and cloning.

[3] = target: T1, recombinant human SLPI (Secretory …); experiment: limiting antigen ELISA, biotinylated SLPI coated at 200 ng/ml
Method: as §1

[4] = target: T1, recombinant human SLPI (Secretory …); experiment: limiting antigen ELISA, biotinylated SLPI coated at 400 ng/ml
Method: as §1

[5] = target: T1, recombinant human SLPI (Secretory …); experiment: limiting antigen ELISA, biotinylated SLPI coated at 800 ng/ml
Method: as §1

[6] = target: T1, recombinant human SLPI (Secretory …); experiment: ELISA, SLPI (60 ng/ml) + supernatant on plate-bound chymotrypsin
Method: Antibodies were screened for ability to inhibit SLPI activity. The assay involves assessing SLPI binding to chymotrypsin and resultant inhibition of chymotrypsin enzyme activity in the presence or absence of antibody. Biotinylated bovine chymotrypsin (5 μg/ml) was incubated with streptavidin coated plates for 30 minutes at RT. Each plate was washed 5 times with dH₂O prior to addition of an anti-SLPI antibody mixture (30 μl of SLPI reconstituted in 100 mM Tris, 10 mM CaCl₂ and 0.1% HSA pH 7.5 mixed with 20 μl of monoclonal antibody supernatant being tested; final concentration SLPI 60 ng/ml; incubated for 1 hour at RT) and plates were incubated for 1 hour. Plates were washed 5 times with dH₂O then incubated with 50 μl of a polyclonal Goat anti-SLPI (purchased from R&D) at 1 μg/ml/well for 1 hour. After washing, 50 μl of a rabbit anti-goat HRP-conjugated antibody/well was added and incubated for 1 hour. After washing, 50 μl of TMB substrate/well was added.. The reaction was stopped by adding of 50 μl of 1M phosphoric acid/well. Plates were read at wavelength 450 nm.

[7] = target: T1, recombinant human SLPI (Secretory …); experiment: BIAcore 2000, 25 C, antibody captured on goat anti-human surface, SLPI injected
Method: BiaCore® analysis was used to determine binding affinity of anti-SLPI antibody to SLPI antigen. The analysis was performed at 25° C. using a BiaCore® 2000 biosensor equipped with a research-grade CM5 sensor chip. A high-density goat α human antibody surface over a CM5 BiaCore® chip was prepared using routine amine coupling. Antibody supernatents were diluted to ˜5 μg/mL in HBS-P running buffer containing 100 μg/mL BSA and 10 mg/mL carboxymethyldextran. The antibodies were then captured individually on a separate surface using a 2 minute contact time, and a 5 minute wash for stabilization of antibody baseline.
SLPI antigen was injected over each surface for 75 seconds, followed by a 3-minute dissociation. Double-referenced binding data were obtained by subtracting the signal from a control flow cell and subtracting the baseline drift of a buffer inject just prior to the SLPI injection. SLPI binding data for each mAb were normalized for the amount of mAb captured on each surface. The normalized, drift-corrected responses were also measured.

[8] = target: T1, recombinant human SLPI (Secretory …); experiment: ELISA, recombinant antibody in HEK 293 supernatant titrated 1:2 on biotinylated human SLPI
From the text: After isolation of single plasma cells, mRNA was extracted and reverse transcriptase PCR was used to generate cDNA. The cDNA encoding the variable heavy and light chains was specifically amplified using polymerase chain reaction. The variable heavy chain region was cloned into an IgG2 expression vector, generated by cloning the constant domain of human IgG2 into the multiple cloning site of pcDNA3.1+/Hygro (Invitrogen, Burlington, ON). The variable light chain region was cloned into an IgK expression vector, generated by cloning the constant domain of human IgK into the multiple cloning site of pcDNA3.1+/Neo (Invitrogen, Burlington, ON). The heavy chain and the light chain expression vectors were then co-lipofected into a 60 mm dish of 70% confluent human embryonic kidney 293 (HEK 293) cells and the transfected cells were incubated for 24 hours to secrete recombinant antibody. Supernatant (3 mL) was harvested from the HEK 293 cells and the secretion of intact antibody and binding to SLPI tested ELISA. To detection secretion, 96 well plates were coated with 2 μg/mL of goat anti-human IgG H+L overnight. For detection of SLPI binders, streptavidin plates were coated with biotinylated human SLPI (0.5 μg/mL) overnight at four degrees. The plates were washed five times with dH₂O. Recombinant antibodies titrated 1:2 for 7 wells from the undiluted minilipofection supernatant were added, incubated and the plates were washed five times with dH₂O. Goat anti-human IgG Fc-specific HRP-conjugated antibody was added at a final concentration of 1 μg/mL, incubated for 1 hour at RT and the plates were washed as before. Plates were developed with the addition of TMB for 30 minutes and the reaction was stopped by the addition of 1 M phosphoric acid. Each ELISA plate was analyzed to determine the optical density of each well at 450 nm.

T1 sequence (P03973 25-131): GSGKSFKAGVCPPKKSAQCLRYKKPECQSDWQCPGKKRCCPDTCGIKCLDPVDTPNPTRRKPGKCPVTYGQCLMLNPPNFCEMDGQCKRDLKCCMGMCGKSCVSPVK

| Binder | 2* OD [1] [OD450] | OD [2] [OD450] | OD [3] [OD450] | OD [4] [OD450] | OD [5] [OD450] | % Max [6] [%] | O.D. [6] [OD450] | Kd [7] [nM] | Binding to SLPI (titre of supernatant) [8] [reciprocal dilution] |
| --- | --- | --- | --- | --- | --- | --- | --- | --- | --- |
| 35F1 (antibody, human IgG2, V domains shown, Fully human, XenoMouse XMG2; also called #50; Cur12.1 PL35 F1) VH: QVQLQESGPGLVKPSQTLSLTCTVSGGSIKSGDYYWSWVRQLPGKGLEWIGYIYYSGSTYYNPSLKSRVTISIDTSKNQFSLKLSSVTAADTAVYYCAREGSYYDSGGFDYWGQGTLVTVSS VL: not shown | 0.41 | 0.2 | 0.24 | 0.3 | 0.37 | 47 | 0.35 | 0.14 | > 64 |
| 42C1 (antibody, human IgG2, V domains shown, Fully human, XenoMouse XMG2; also called #24; Cur12.1 PL42 C1) VH: QVQLQESGPGLVKPSQTLSLTCTVSGVSISSGGYYWSWIRQHPGKGLEWIGYIYYSGSTYYNPSLKSRVTISVDTSKNQFSLKLSSVTAADTAVFYCAREGEYYDEGGFDYWGQGTLVTVSS VL: not shown | 2.25 | 3.42 | 3.69 | 3.58 | 3.85 | 103 | 0.762 | 0.116 | > 64 |
| 43H7 (antibody, human IgG2, V domains shown, Fully human, XenoMouse XMG2; also called #11; Cur12.1 PL43 H7) VH: QVQLVESGGGVVQPGRSLRLSCAASGFTFSTYGMHWVRQAPGKGLEWVTFIWYDGRNKYYADSVKGRFTVSRDNSKNTLYLQMNSLRAEDTAVYYCARGDDYGDYHPHYYYYGLDVWGQGTTVTVSS VL: DIVMTQTPLSLSVTPGQPASISCKSSQSLLDSDGKTYLYWYLQKPGQPPQLLIYEVSNRFSGVPDRFSGSGSGTDFTLKISRVEAEDVAYYYCMQSIQLPWTFGQGTKVEIK | 2.28 | 2.6 | 3.52 | 4.02 | 4.1 | 90 | 0.666 | 0.104 | > 64 |
| 9G12 (antibody, human IgG2, V domains shown, Fully human, XenoMouse XMG2; also called #36; Cur12.1 PL09 G12) VH: QVQLVESGGGVVQPGRSLRLSCAASGFTFSGYGMHWVRQAPGKGLEWVAFIWYNGNDNYYTDSVKGRFTISRDNSKNTLYLQMNSLRAEDTAVYYCARGDDYGDYHPHYYYYGMDVWGQGTTVTVSS VL: DIVMTQTPLSLSVTPGQPASISCKSSQSLLDSDGKTYLYWYLQKPGQPPQLLIYEVSNRFSGVPDRFSGSGSGTDFTLKISRVEAEDIGVYYCLQSIQLPWTFGQGTKVEIK | 1.97 | 0.98 | 1.36 | 2.19 | 2.25 | 61 | 0.452 | 0.053 | > 64 |
